# Source: the RNAGym collection of RNA variant scans (doi:10.1073/pnas.2313332121)
# B1: TPR t1 (parent)
# chain: GACCAAUCUGCCCUCAGAGCUCGAGAACAUCUUCGGAUGCAGAGGAGGCAGGCUUCGGUGGCGCGAUAGCGCCAACGUCCUCAACCUCCAAUGCAUCCCACCACAUGAUGAUGCCUGAAGAGCCUUGGUUUUUUG
# Variants of: B1
# Test: polymerase ribozyme fitness, log enrichment relative to wild type (log ratio); higher = more active; in vitro selection for triplet polymerase activity
# Method in brief: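 Genotype fitness is the logarithm of its enrichment divided by wild-type enrichment, using inverse-variance-weighted averages of replicates. That logarithm is base 2. Enrichment was measured by Illumina sequencing of input and output libraries from one triplicate in vitro selection round, with frozen incubation at −7 °C, on PCR-built, transcribed mutant libraries of each subunit of a heterodimeric triplet polymerase ribozyme, retaining genotypes with ≥10 input reads and ≥1 read per output.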
row,Variant,polymerase ribozyme fitness (log ratio)
1,A6U C8A G44U G107A U112A,-6.05
2,A5U C72U G128U,-2.15
3,A6U A50U G57C A75U,-0.743
4,A6U C79G,-1.17
5,A6U C12U A27U,-1.6
6,A6G C8A U55A C62A,-0.384
7,A6U C22U C64U C124U,-4.12
8,A6U G19A G44A C53A G57A A100U C124U,-4.72
9,U7A C53U,-0.0186
10,A5U G45A,-1.11
11,A5U G45U,-1.13
12,A6U A41C C79G G113C U133A,-4.49
13,A6C G10A A37G G77A C79U C124A,-0.0414
14,A6U U96C,-0.215
15,A6C G10A C13U G36U G51U G77C A90C G120U,-4.97
16,A6U C49A C62U,-1.33
17,A6C G93A,-1.25
18,A6C G63U,-1.03
19,A5U C114A G122U,-1.76
20,A5U G51U G77U,-4.52
21,A6U G120A,0.678

row,Variant,polymerase ribozyme fitness (log ratio)
1,A6U G10C G61A C89A U125A,-2.03
2,U7A C72U G77C G93C G113A G120A,-2.99
3,A6U G57A,-0.751
4,A6U C12A A103U,-4.89
5,A6U C88U,-1.02
6,A6U C88A,-0.42
7,A6C C8A G60A U87A,-0.0712
8,A6U C12U G110U U130C,-0.715
9,A6U C12U G48A C56A G65U A95U C97G C101A U112G C114U,-7.26
10,A6G G39A C123U U133A,0.797
11,A6G C97U,-0.751
12,A6U C22A C40A G61U,-5.59
13,A5U G48U,-1.69
14,A6U G10U C15G C28A A100C C123U,-5.42
15,A5U G57A C70U,-1.67
16,A6U C124A,1.49
17,A6C C11G C40U C123U,0.00495
18,A6G C13U G19U C56A,-3.79
19,U7A A27C C49U U55G,-4.4
20,A6G A41G A50G C70U,-0.773
21,A6U A46G C70U U133A,-1.52

row,Variant,polymerase ribozyme fitness (log ratio)
1,U7A C40U C85G C104U,-2.31
2,A6C G19A A41C C70A,-4.25
3,A6U C15G A43U C115U U116G G120A G122A,-3.93
4,A6C C40U G107U C124U,-4.44
5,U7A C72A G93C,-0.463
6,A6U U87C U96G G120A G122C,0.592
7,A5U G120U,0.128
8,A6G C28G C115G U125G,-3.74
9,A5U C124A,2.04
10,A6G C8U C98G,-4.61
11,A6G G48U G52C,-2.21
12,U7A C13U A27G G36U A50C,-2.73
13,A6U C56U,0.177
14,A6G G69A,-2.86
15,U7A C62G C86U,-1.24
16,A6U G60U C115A G117U,-4.41
17,A5U G45C G60A,-0.71
18,A5U U112G,-0.587
19,A6U C11G G69U C76A U125G,-2.63
20,A5U G17A C49A G60A C89U,-5.58
21,U7A A29U G60U C97U G113C G120U U133A,-4.07

row,Variant,polymerase ribozyme fitness (log ratio)
1,A6U C12G G45C A74U C94U,-0.942
2,A5U C86G,-1.26
3,A6U G69A C115U G120C,-5.82
4,A6G C31A C64U C89G C123G,-6.4
5,A6G G69U G120U,0.637
6,A6G G39A A68G C86U G117A,-5.73
7,A5U U14C A50U C72A C124A U131G,-1.27
8,U7A C13U G19C G113U,-1.96
9,U7A C40A G71U C89G A103C C124U,-6.17
10,A6G C15U C56U G69U U112A G117A,-1.54
11,A6C U30G G63A A91U A100G C104G U109G,-5.44
12,U7A A50U G77A,-1
13,A6G C11G C13G C99A C102U,-5.35
14,A6U C22A,-4.95
15,A5U C64G C88G C104A A121G,-7.55
16,A6U C40U,0.421
17,A6U C73U,0.309
18,A6U C73A,0.0629
19,A6U C34A,-1.85
20,A5U U33C,-3.68
